Results taken from patent US20190248924A1.
pEC50: −log10 of the molar value.

Target: human CTLA-4Ig (R&D Systems) (human) (UniProt P16410)
Experiment: ELISA, human CTLA-4Ig immobilized on the plate, detection with anti-human Fab-HRP, OD450; unit taken from the x axis; fit value of a flat control curve, far beyond the range tested

Sequence of UniProt P16410 (P16410 37-162): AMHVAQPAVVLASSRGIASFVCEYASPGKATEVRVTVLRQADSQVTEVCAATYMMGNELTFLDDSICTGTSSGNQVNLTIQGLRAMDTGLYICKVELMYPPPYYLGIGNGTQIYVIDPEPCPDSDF

- pEC50: 4.29
Substance: hIgG Control (antibody)
